{"source": "paper PMC9940316", "key": {"[1]": {"target": "rabbit polyclonal anti-BSA antibody (IgG) (rabbit) (UniProt P01870)", "sequence (P01870 whole entry, looked up)": "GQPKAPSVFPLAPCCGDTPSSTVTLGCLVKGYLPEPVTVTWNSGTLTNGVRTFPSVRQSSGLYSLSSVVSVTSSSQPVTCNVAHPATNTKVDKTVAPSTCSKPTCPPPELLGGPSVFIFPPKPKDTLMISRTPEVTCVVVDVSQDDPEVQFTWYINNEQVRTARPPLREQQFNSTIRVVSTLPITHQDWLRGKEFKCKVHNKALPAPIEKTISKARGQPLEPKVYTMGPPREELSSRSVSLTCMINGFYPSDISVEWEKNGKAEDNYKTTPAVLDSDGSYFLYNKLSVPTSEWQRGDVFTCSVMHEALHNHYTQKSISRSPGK", "assay": "SPR; pH 4.6"}, "[2]": {"target": "rabbit polyclonal anti-BSA antibody (IgG) (rabbit) (UniProt P01870)", "assay": "SPR; pH 7.5"}, "[3]": {"target": "rabbit polyclonal anti-BSA antibody (IgG) (rabbit) (UniProt P01870)", "assay": "SPR; pH 4.0"}, "[4]": {"target": "human plasma IgG3 (human)", "assay": "SPR; BIAcore 3000; human IgG subclass immobilised on CM5 chip by amine coupling (200-1000 RU); FcγRI mutants as analytes; steady-state fitting"}, "[5]": {"target": "human plasma IgG4 (human)", "assay": "SPR; BIAcore 3000; human IgG subclass immobilised on CM5 chip by amine coupling (200-1000 RU); FcγRI mutants as analytes; steady-state fitting"}, "human IgG2 (human) [6]": {"target": "human IgG2 (human)", "assay": "SPR; BIAcore 3000; human IgG subclass immobilised on CM5 chip by amine coupling (200-1000 RU); FcγRI mutants as analytes; steady-state fitting"}, "[7]": {"target": "VRC01, human IgG1 isotype anti-gp120 antibody, wildtype (human)", "sequence (light, as listed by the source, chain 2 of 2, other chains not shown)": "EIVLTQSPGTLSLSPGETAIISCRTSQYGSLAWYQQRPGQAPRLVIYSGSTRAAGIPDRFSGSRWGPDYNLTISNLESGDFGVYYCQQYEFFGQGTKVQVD", "assay": "BLI; Octet R8; VRC01 or D265R mutant captured on Protein A biosensors (~5 nm); serial dilutions of FcγRI (Zymogenetics); 10mM Hepes pH7.5, 0.15M NaCl; 1:1 binding model"}, "[8]": {"target": "VRC01 D265R mutant antibody (human)", "sequence (light, as listed by the source, chain 2 of 2, other chains not shown)": "as above", "assay": "BLI; Octet R8; VRC01 or D265R mutant captured on Protein A biosensors (~5 nm); serial dilutions of FcγRI (Zymogenetics); 10mM Hepes pH7.5, 0.15M NaCl; 1:1 binding model"}, "[9]": {"target": "human plasma IgG3 (human)", "assay": "SPR; BIAcore 3000; human IgG subclass immobilised on CM5 chip by amine coupling (200-1000 RU); wild type FcγRI as analyte; kinetic curve fitting"}, "[10]": {"target": "human plasma IgG4 (human)", "assay": "SPR; BIAcore 3000; human IgG subclass immobilised on CM5 chip by amine coupling (200-1000 RU); wild type FcγRI as analyte; kinetic curve fitting"}, "human IgG2 (human) [11]": {"target": "human IgG2 (human)", "assay": "SPR; BIAcore 3000; human IgG subclass immobilised on CM5 chip by amine coupling (200-1000 RU); wild type FcγRI as analyte; kinetic curve fitting"}}}
{"substance": "BSA", "values": [{"measurement": "Kd", "setting": "[1]", "value": 10.1, "unit": "nM"}, {"measurement": "Kd", "setting": "[2]", "value": 7.8, "unit": "nM"}, {"measurement": "Kd", "setting": "[3]", "value": 1.8, "unit": "nM"}]}
{"substance": "FcγRI H174R variant (bovine FG-loop variant of human FcγRI) (from UniProt P12314 21-282) (receptor)", "values": [{"measurement": "Kd", "setting": "[4]", "value": 24.2, "unit": "nM"}, {"measurement": "Kd", "setting": "[5]", "value": 109, "unit": "nM"}, {"measurement": "Kd", "setting": "human IgG2 (human) [6]", "value": 32.8, "unit": "nM"}]}
{"substance": "recombinant human FcγRI, wildtype (from UniProt P12314 21-282) (receptor)", "values": [{"measurement": "Kd", "setting": "[7]", "value": 12, "unit": "nM"}, {"measurement": "Kd", "setting": "[8]", "value": 1160, "unit": "nM"}, {"measurement": "Kd", "setting": "[9]", "value": 28.6, "unit": "nM"}, {"measurement": "Kd", "setting": "[10]", "value": 65.7, "unit": "nM"}, {"measurement": "Kd", "setting": "human IgG2 (human) [11]", "value": 41, "unit": "nM"}]}
